From patent US20090304651A1 (published 2009)
Residue numbers refer to the chain shown, from its start. Names and notes keep the numbering of the source. Read-outs that look alike come from different tables or passages of the source. Blank lines part the entries; values can stand above or below the binder they belong to.

How the values were obtained:
[1] = target: T1, recombinant human IGF-II (Insulin-like Growth Factor II) (human, UniProt P01344 25-91, biotinylated (Biotinyl-IGF-II, GroPep) where immobilised in SPR, site not stated; not biotinylated in ITC and as SPR analyte); assay: SPR, IGF-II immobilised, kinetic fit
T1 construct: also called IGF2; IGF-2
Procedure, shortened: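 Biotinylated IGF-II (~50 RU) was captured on a streptavidin Sensor Chip SA, and domain 11 proteins, secreted from Pichia pastoris and purified by His-tag, were injected over it in duplicate and in randomised order. A BIAcore 3000 was run at 25° C in HBS-EP at 40 μl/min, with 2 min injections, 100 s dissociation and regeneration with 2 M MgCl₂. Analyte concentrations spanned 4096–8 nM, or 16384–32 nM for three constructs. After subtraction of blank flow cell and buffer injection signals, association rates, dissociation rates and Kd were obtained by global fitting of sensorgrams in BIAevaluation 4.0.1.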

[2] = target: T1, recombinant human IGF-II (Insulin-like …); assay: SPR, steady-state KD relative to wild type
Procedure: (§1) Duplicate analyte injections were performed at concentrations of 4096, 2048, 1024, 512, 256, 128, 64, 32, 16 and 8 nM.
(§2) Kinetic analysis by Surface Plasmon Resonance (SPR) was conducted on a BIAcore 3000 biosensor (BIAcore, Uppsala, Sweden) at 25° C. in HBS-EP (10 mM HEPES, pH 7.4, 150 mM NaCl, 3 mM EDTA, 0.005% surfactant P20) at a flow rate of 40 μl/min. […] Kinetic experiments consisted of a two minute injection of analyte followed by a 100 s dissociation phase in running buffer, after which the binding surface was regenerated with a 2 minute injection of 2 M MgCl₂. A blank flow cell was used for in-line reference subtraction of changes due to differences in refractive index of running buffer versus sample and a buffer-only injection was used to subtract instrument noise and drift. Injections were performed in duplicate for each concentration and in a randomised order. Kinetic parameters were determined by global fitting of sensorgrams to a two-state (conformational change) binding model using BIAevaluation software version 4.0.1. In all cases the minor component made an insignificant contribution to the overall affinity and as such only the kinetic parameters of the major binding component were used. For each interaction the dissociation affinity constant (KD) was also calculated by fitting of the response of each concentration at equilibrium to a steady-state affinity model using BIAevaluation.

[3] = target: T1, recombinant human IGF-II (Insulin-like …); assay: SPR, IGF-II immobilised, kinetic fit; remark: listed apart in the source
Procedure: as §1, §2

[4] = target: T1, recombinant human IGF-II (Insulin-like …); assay: SPR, IGF-II immobilised, steady state
Procedure: as §1, §2

[5] = target: T1, recombinant human IGF-II (Insulin-like …); assay: SPR, steady-state KD relative to wild type; remark: listed apart in the source
Procedure, shortened: (§3)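 Biotinylated IGF-II (~50 RU) on a streptavidin Sensor Chip SA served as the surface for duplicate injections of His-tag-purified domain 11 proteins made by secretion in Pichia pastoris. On a BIAcore 3000 at 25° C, 2 min injections in HBS-EP flowed at 40 μl/min over a range of 4096–8 nM, or 16384–32 nM for three constructs. After subtracting the blank flow cell and buffer injections, equilibrium responses were fitted in BIAevaluation to a steady-state affinity model to give Kd, with relative affinity referenced to the unaltered domain 11 protein.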

[6] = target: T1, recombinant human IGF-II (Insulin-like …); assay: SPR, IGF-II immobilised, steady state; remark: listed apart in the source
Procedure, shortened: as §3

[7] = target: T2, recombinant human IGF-I (Insulin-like Growth Factor I) (human, UniProt P05019 49-118, biotinylated (Biotinyl-IGF-I, GroPep), site not stated); assay: SPR, biotinylated IGF-I immobilised
T2 construct: also called IGF1; Biotinyl-IGF-I
Procedure: (§4) Kinetic experiments consisted of a two minute injection of analyte followed by a 100 s dissociation phase in running buffer, after which the binding surface was regenerated with a 2 minute injection of 2 M MgCl₂. A blank flow cell was used for in-line reference subtraction of changes due to differences in refractive index of running buffer versus sample and a buffer-only injection was used to subtract instrument noise and drift. Injections were performed in duplicate for each concentration and in a randomised order. Kinetic parameters were determined by global fitting of sensorgrams to a two-state (conformational change) binding model using BIAevaluation software version 4.0.1. In all cases the minor component made an insignificant contribution to the overall affinity and as such only the kinetic parameters of the major binding component were used. For each interaction the dissociation affinity constant (KD) was also calculated by fitting of the response of each concentration at equilibrium to a steady-state affinity model using BIAevaluation. In order to investigate the influence of ionic strength, kinetic experiments were conducted in HBS-EP running buffers containing the desired NaCl concentration. In each case, analyte samples were made up in the appropriate running buffer prior to injection.
(§5) The affinity of versions of Fc-tagged domain 11 fusion proteins, and domain 11 constructs, for IGF-II were compared using surface plasmon resonance (BIAcore 3000). Attempts were made to immobilize Fc-tagged domain 11 proteins upon a sensor chip surface (CM5 and CM5-proteinA) but we encountered similar problems as described above with immobilised monomeric domain 11. Instead, immobilisation of biotinylated IGF-I and IGF-II on separate flow cells of a streptavidin coated sensor chip (BIAcore) generated reproducible sensorgram profiles when Fc-tagged and untagged domain 11 proteins were passed over the surface as analytes. The Fc-tagged domain 11 kinetic data performed in triplicate generated sensorgrams that were analyzed using a bivalent analyte model.

[8] = target: T1, recombinant human IGF-II (Insulin-like …); assay: SPR, IGF-II immobilised
Procedure: as §4, §5

[9] = target: T1, recombinant human IGF-II (Insulin-like …); assay: SPR, IGF-II immobilised, steady state; remark: listed apart in the source
Procedure: as §2, with “BIAevaluation. In order to investigate the influence of ionic strength, kinetic experiments were conducted in HBS-EP running buffers containing the desired NaCl concentration. In each case, analyte samples were made up in the appropriate running buffer prior to injection.” for “BIAevaluation.”
(§6) Following purification, the binding of each mutant construct to IGF2 was assessed by SPR and compared to the wild type domain 11. Sensorgrams were generated using biotinylated IGF2 immobilised to the cell surface and mutant domain 11 proteins as the free analyte (FIG. 4).

[10] = target: T1, recombinant human IGF-II (Insulin-like …); assay: SPR, steady-state KD relative to wild type; remark: listed apart in the source
Procedure: […]. Values are the mean±S.E.M. of three separate experiments.
as §2, with “BIAevaluation. In order to investigate the influence of ionic strength, kinetic experiments were conducted in HBS-EP running buffers containing the desired NaCl concentration. In each case, analyte samples were made up in the appropriate running buffer prior to injection.” for “BIAevaluation.”
Following purification, the binding of each mutant construct to IGF2 was assessed by SPR and compared to the wild type domain 11.

[11] = target: T1, recombinant human IGF-II (Insulin-like …); assay: ITC, IGF-II titrated into domain 11
Procedure: Calorimetric measurements were performed using a VP-ITC microcalorimeter (MicroCal). All solutions were thoroughly degassed before use by stirring under vacuum. […] The sample cell contained either wild type domain 11 (7 uM) or the E1544A mutant (8 μM), also in HBS-E buffer. To correct for the heat effects of dilution and mixing, reaction heats obtained from a control experiment, in which IGF2 was injected into HBS-E, were subtracted. Calorimetric data were analysed using MicroCal ORIGIN software (version 5.0) supplied with the instrument. Thermodynamic parameters were derived by fitting the binding isotherms to a single-site binding model. Values for dissociation affinity constants (KD) were determined from duplicate experiments.
In order to validate the SPR sensorgram data, ITC was used to assess the binding affinity between domain 11 and IGF-II. The affinity of the E1544A mutant was also assessed by ITC in order to confirm whether use of a second technique agreed as to the apparent increase in affinity (FIG. 6 and Table 6). Titrations were performed using 17×15 μl injections of 40 μM IGF-II (after an initial 7.51 injection) into the reaction cell containing wild type domain 11 or the E1544A mutant. […] The two fold differences may be simply accounted for by the fidelity of both techniques.

[12] = target: T1, recombinant human IGF-II (Insulin-like …); assay: SPR, IGF-II immobilised, kinetic fit; remark: listed apart in the source
Procedure: as §2, with “BIAevaluation. In order to investigate the influence of ionic strength, kinetic experiments were conducted in HBS-EP running buffers containing the desired NaCl concentration. In each case, analyte samples were made up in the appropriate running buffer prior to injection.” for “BIAevaluation.”
as §6

[13] = target: T1, recombinant human IGF-II (Insulin-like …); assay: SPR (Biacore)
[14] = target: T1, recombinant human IGF-II (Insulin-like …); assay: SPR, IGF-II immobilised, bivalent analyte model
Procedure: as §4, with “In order to investigate the influence of ionic strength, kinetic experiments were conducted in HBS-EP running buffers containing the desired NaCl concentration. In each case, analyte samples were made up in the appropriate running buffer prior to injection.” left out
(§7) The affinity of versions of Fc-tagged domain 11 fusion proteins, and domain 11 constructs, for IGF-II were compared using surface plasmon resonance (BIAcore 3000). […] The Fc-tagged domain 11 kinetic data performed in triplicate generated sensorgrams that were analyzed using a bivalent analyte model.

[15] = target: T1, recombinant human IGF-II (Insulin-like …); assay: SPR, IGF-II immobilised, bivalent analyte model, ka1
Procedure: as §4, with “In order to investigate the influence of ionic strength, kinetic experiments were conducted in HBS-EP running buffers containing the desired NaCl concentration. In each case, analyte samples were made up in the appropriate running buffer prior to injection.” left out
as §7

[16] = target: T1, recombinant human IGF-II (Insulin-like …); assay: SPR, IGF-II immobilised, bivalent analyte model, kd1
Procedure: as §4, with “In order to investigate the influence of ionic strength, kinetic experiments were conducted in HBS-EP running buffers containing the desired NaCl concentration. In each case, analyte samples were made up in the appropriate running buffer prior to injection.” left out
as §7

T1 sequence (P01344 25-91 limits assumed): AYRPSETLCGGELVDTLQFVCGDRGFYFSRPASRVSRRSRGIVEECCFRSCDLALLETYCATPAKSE
T2 sequence (P05019 49-118 limits assumed): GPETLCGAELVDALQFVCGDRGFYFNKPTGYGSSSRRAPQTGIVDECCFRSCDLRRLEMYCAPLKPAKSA

B1: IGF2R domain 11 E1544V (amino acids 1511-1650, C-terminal His6 tag, from Pichia pastoris) (receptor)
chain: NEHDDCQVTNPSTGHLFDLSSLSGRAGFTAAYSVKGLVYMSICGENENCPPGVGACFGQTRISVGKANKRLRYVDQVLQLVYKDGSPCPSKSGLSYKSVISFVCRPEAGPTNRPMLISLDKQTCTLFFSWHTPLACEQATHHHHHH
Kd [1]: 60.5 nM
koff [1]: 0.0675 s⁻¹
kon [1]: 1.12e+06 M⁻¹ s⁻¹
Relative Affinity [2]: 1.96 fold (wild type = 1.00)
Kd [3]: 49.8 nM
koff [3]: 0.041 s⁻¹
kon [3]: 837000 M⁻¹ s⁻¹
Kd [4]: 52.7 nM
Relative Affinity [5]: 1.96 fold (wild type = 1.00)
Kd [6]: 52.7 nM

B2: IGF2R domain 11 I1572A (amino acids 1511-1650, C-terminal His6 tag, from Pichia pastoris) (receptor)
chain: B1 chain with V34E, I62A
notes: also called null mutant
binding result [7]: no binding (tested: 16384 nM highest analyte concentration)

B5: Fc-tagged wild-type IGF2R domain 11 (11-Fc), human IgG1 Fc at the C-terminus, homodimer from Drosophila D.Mel-2 cells (Fc fusion)
chain: NEHDDCQVTNPSTGHLFDLSSLSGRAGFTAAYSEKGLVYMSICGENENCPPGVGACFGQTRISVGKANKRLRYVDQVLQLVYKDGSPCPSKSGLSYKSVISFVCRPEAGPTNRPMLISLDKQTCTLFFSWHTPLACEQAT
modifications: N-glycosylated with two 982.9 Da molecules of Man3GlcNAc2
notes: also called 11^Wild type-Fc; 11^Wild type -Fc; not shown: human IgG1 Fc domain, amplified from IMAGE clone 4851063
Kd [14]: 3.26 nM
kon [15]: 1.36e+06 M⁻¹ s⁻¹
koff [16]: 0.00445 s⁻¹
binding result [7]: no binding

Continued, values first:

binding result [8]: binds
B3: IGF2R domain 11 with cysteine at position 1544 (E1544C) (receptor)
chain: B1 chain with V34C

Kd [9]: 170 nM
Relative Affinity [10]: 0.61 fold (wild type = 1.00)
Kd [11]: 324 nM
Kd [12]: 179 nM
koff [12]: 0.079 s⁻¹
kon [12]: 441000 M⁻¹ s⁻¹
Kd [13]: 170 nM
B4: IGF2R domain 11 S1596A (amino acids 1511-1650, C-terminal His6 tag, from Pichia pastoris) (receptor)
chain: B1 chain with V34E, S86A
